Data on five molecules can be found in patent publication US20230149462A1 (JUNO THERAPEUTICS, published 2023).

For this assay, the target named is T1, human BCMA (human, UniProt Q02223 1-54, limits assumed).
T1 construct: also called B-cell maturation antigen; human BCMA polypeptide
T1 sequence: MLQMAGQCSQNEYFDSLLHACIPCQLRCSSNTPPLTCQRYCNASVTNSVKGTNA
The assay is described as follows: CLIPS peptide epitope mapping (Pepscan). The method, then: Epitopes recognized, e.g., specifically bound by exemplary anti-BCMA scFv clones, were determined based on full discontinuous epitope mapping by Chemical Linkage of Peptides onto Scaffolds (CLIPS; Pepscan Presto BV, Lelystad, The Netherlands; see, e.g., Timmerman et al., (2007) J. Mol. Recognit. 20: 283-329). […] In some aspects, such antibodies recognize a non-linear or linear epitope including residues of such peptide of SEQ ID NO: 160, and in some aspects recognize a non-linear epitope further including residues of CIPCQLR (set forth in SEQ ID NO:159), […] and/or SVTNSVK (set forth in SEQ ID NO:161).

B1: BCMA-55-scFv (scFv)
scFv: QSALTQPASVSASPGQSIAISCTGTSSDVGWYQQHPGKAPKLMIYEDSKRPSGVSNRFSGSKSGNTASLTISGLQAEDEADYYCSSNTRSSTLVFGGGTKLTVLGSRGGGGSGGGGSGGGGSLEMAEVQLVQSGAEMKKPGASLKLSCKASGYTFIDYYVYWMRQAPGQGLESMGWINPNSGGTNYAQKFQGRVTMTRDTSISTAYMELSRLRSDDTAMYYCARSQRDGYMDYWGQGTLVTVSS
notes: also called BCMA-55-scFV-mFc
For the molecule B1, the binding result is “binds”.

B2: BCMA-23 scFv (scFv)
scFv: EVQLVESGGGLVKPGGSLRLSCAASGFTFSDYYMSWIRQAPGKGLEWVSYISSSGSTIYYADSVKGRFTISRDNAKNSLYLQMNSLRAEDTAVYYCAKVDGDYTEDYWGQGTLVTVSSGGGGSGGGGSGGGGSQSALTQPASVSGSPGQSITISCTGSSSDVGKYNLVSWYQQPPGKAPKLIIYDVNKRPSGVSNRFSGSKSGNTATLTISGLQGDDEADYYCSSYGGSRSYVFGTGTKVTVL
Consider B2, for which the binding result is reported as “binds”.

B3: BCMA-52-scFv-mFc (Fc fusion)
chain: SYELTQPPSASGTPGQRVTMSCSGTSSNIGSHSVNWYQQLPGTAPKLLIYTNNQRPSGVPDRFSGSKSGTSASLAISGLQSEDEADYYCAAWDGSLNGLVFGGGTKLTVLGSRGGGGSGGGGSGGGGSLEMAEVQLVQSGAEVKKPGESLKISCKGSGYSFTSYWIGWVRQMPGKGLEWMGIIYPGDSDTRYSPSFQGHVTISADKSISTAYLQWSSLKASDTAMYYCARYSGSFDNWGQGTLVTVSS
notes: not shown: mFc portion named in the label
Turning to B3, the binding result is “binds”.

B4: BCMA-26 scFv (scFv)
scFv: EVQLVESGGGLVKPGGSLRLSCAASGFTFSDYYMSWIRQAPGKGLEWVSYISSSGSTIYYADSVKGRFTISRDNAKNSLYLQMNSLRAEDTAVYYCAKVDGPPSFDIWGQGTMVTVSSGGGGSGGGGSGGGGSSYVLTQPPSVSVAPGQTARITCGANNIGSKSVHWYQQKPGQAPMLVVYDDDDRPSGIPERFSGSNSGNTATLTISGVEAGDEADYFCHLWDRSRDHYVFGTGTKLTVL
Take B4: the binding result is reported as “binds”.

B5: BCMA-25 scFv (scFv)
scFv: EVQLVQSGGGLVQPGRSLRLSCTASGFTFGDYAMSWFRQAPGKGLEWVGFIRSKAYGGTTEYAASVKGRFTISRDDSKSIAYLQMNSLKTEDTAVYYCAAWSAPTDYWGQGTLVTVSSGGGGSGGGGSGGGGSDIQMTQSPAFLSASVGDRVTVTCRASQGISNYLAWYQQKPGNAPRLLIYSASTLQSGVPSRFRGTGYGTEFSLTIDSLQPEDFATYYCQQSYTSRQTFGPGTRLDIK
On to B5, for which the binding result is “binds”.
